The source of these data is paper PMC11741606 (2025).

The target in test [1] is Arabian camel aminopeptidase N ectodomain fused with the Fc domain of human IgG (Arabian camel (Camelus dromedarius)). The experiment in a line: SPR.
The target of test [2] is T1, TGEV RBD (receptor-binding domain of the transmissible gastroenteritis coronavirus spike protein) (transmissible gastroenteritis …).
T1 chain: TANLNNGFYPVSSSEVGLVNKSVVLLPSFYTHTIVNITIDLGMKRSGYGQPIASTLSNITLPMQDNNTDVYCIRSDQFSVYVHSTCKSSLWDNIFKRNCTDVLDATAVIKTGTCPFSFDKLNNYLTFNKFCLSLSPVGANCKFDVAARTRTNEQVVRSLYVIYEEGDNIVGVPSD
As to the kind of experiment: SPR.

B1: PDCoV RBD (receptor-binding domain of the porcine deltacoronavirus spike protein) (domain or fragment)
chain: VTLPKLPELEVVQLNISAHMDFGEARLDSVTINGNTSYCVTKPYFRLETNFMCTGCTMNLRTDTCSFDLSAVNNGMSFSQFCLSTESGACEMKIIVTYVWNYLLRQRLYVTAVEGQTHTGTTSVHATDTSSV
For the molecule B1, binding in test [1] was characterised by a dissociation constant (Kd) of 10.8 µM.

B2: cat aminopeptidase N ectodomain fused with the Fc domain of human IgG (Fc fusion)
chain: YSQEKNRSTESSTAASTAAPTGPTTTVATTLDQSKPWNVYRLPKTLIPDSYNVTLRPYLTPNNKGLYVFTGTNIVRFTCKESTNIVIIHSKRLNYTSHQGHMVALSGVGGFHPQPVIVRTELVELTEYLVVHLQEPLVAGRQYEMNSEFQGELADDLAGFYRSEYMENGVKKVLATTHMQATEARKSFPCFDEPAMKATFNITIIHPNNLVALSNMLPRGPSVPFGEDPTWKVTEFETTPIMSTYLLAYIVSEFSYVETRAPSGVLIRIWARPSAINQGHGDYALKVTGPILDFFSQHYDTPYPLNKSDQIALPDFNAGAMENWGLVTYRESALLYDRQSSSSGNQERVVTVIAHELAHQWFGNLVTLEWWNDLWLNEGFASYVEYLGADFAEPTWNLKDLMVLNDVYRVMAVDALASSHPLSTPASEINTPAQISEVFDSISYSKGASVLRMLSNFLTEDLFKMGIASYLHTYKYGNTIYLNLWEHLQQVVDKQPTIKLPDTVSAIMDRWILQMGFPVITVDTQTGTISQQHFLLDPQSVVTRPSQFNYLWIVPISSVRSGSPQAHYWLPGVEKAQNDLFKTTANDWVLLNLNVTGYYLVNYDNENWKKIQTQLQTDLSVIPVINRAQVIHDAFNLASAQKVPVTLALNNTLFLIQETEYMPWQAALSSLSYFKLMFDRSEVYGPMKRYLKKQVTPLFNHFERVTKNWTDHPQTLMDQYSEINAVSTACSYGVPECEKLAATLFAQWKKNPQNNPIHPNLRSTVYCNAIAQGGEEEWNFVWEQFLKAELVNEADKLRGALACSNQVWILNRFLSYTLDPNLIRKQDVTSTLSSISSNVVGQTLVWDFVQSNWKKLFQDYGTGSFSFSNLIQAVTRRFSTEFELQQLEQFKKNNMDTGFGSATRALEQALEKTKANLKWVKENKDVVLRWFTENS
In test [2], B2 displayed a Kd of 0.0356 µM.

B3: bovine aminopeptidase N ectodomain fused with the Fc domain of human IgG (Fc fusion)
chain: YAQEKNKNAERGTAAPTSPTGPTTTSATTLDQSKPWNRYRLPTTLLPDSYRVTLRPYLTPNNNGLYIFTGSSTVRFTCKEPTDVIIIHSKKLNYTQHSGHLAALKGVGDTQAPEIDRTELVLLTEYLVVHLKSSLEAGKTYEMETTFQGELADDLAGFYRSEYMDGNVKKVLATTQMQSTDARKSFPCFDEPAMKATFNITLIHPKDLTALSNMPPKGPSVPFDGDSNWSVTEFETTPVMSTYLLAYIVSEFTSVESVAPNDVQIRIWARPKATADNHGLYALNVTGPILNFFANHYNTAYPLPKSDQIALPDFNAGAMENWGLVTYRENALLYDPQSSSSSNKERVVTVIAHELAHQWFGNLVTLAWWNDLWLNEGFASYVEYLGADYAEPTWNLKDLMVPNDVYSVMAVDALVTSHPLTTPANEVNTPAQISEMFDTISYSKGASVIRMLSNFLTEDLFKKGLASYLQTFAYQNTTYLNLWEHLQMAVENQLSIRLPDTVSAIMDRWTLQMGFPVITVDTNTGTISQKHFLLDPNSTVTRPSQFNYLWIVPISSIRNGQPQEHYWLRGEERNQNELFKAAADDWVLLNINVTGYYQVNYDENNWKKIQNQLMSRRENIPVINRAQVIYDSFNLASAHMVPVTLALNNTLFLKNEMEYMPWQAAVSSLNYFKLMFDRTEVYGPMQNYLKNQVEPIFLYFENLTKNWTEIPENLMDQYSEINAISTACSNGLPKCEELAKTLFNQWMNNPNVNPIDPNLRSTIYCNAIAQGGQEEWDFAWNQLQQAELVNEADKLRSALACTNHVWLLNRYLSYTLNPDLIRKQDATSTITSIASNVIGQSLAWDFIRSNWKKLFEDYGGGSFSFSNLIQGVTRRFSTEFELQQLEEFKENNMDVGFGSGTRALEQALEKTKANINWVKENKEVVLNWFKDHS
modifications: Wild type. Position 797 in the paper is dog APN alignment numbering, not bovine numbering. Limits from TOPO_DOM extracellular. hFc carrier omitted. N-glycosylated (HEK293T).
B3: binding in test [2] was characterised by a dissociation constant (Kd) of 1.66 µM.
